Measured values published in publication PMC7948506.

How the values were obtained:
[1] = molecular target: Glycine max (soybean) heme oxygenase-1 (GmHO-1) (Glycine max (soybean)); assay: ITC; 800 uM Fd in the syringe into 40 uM holo-GmHO-1 (heme bound) in the cell; 25 °C; 20 mM Tris-HCl pH 7.0, 20 mM NaCl; one set of sites model; single measurement
[2] = molecular target: Glycine max (soybean) heme oxygenase-1 (GmHO-1) (Glycine max (soybean)); assay: ITC; 800 uM Fd in the syringe into 40 uM apo-GmHO-1 (no heme) in the cell; 25 °C; 20 mM Tris-HCl pH 7.0, 20 mM NaCl; one set of sites model; single measurement

Kd [1]: 5.3 µM
dH [1]: 2.6 kcal/mol
stoichiometry N [1]: 1
Kd [2]: 14.7 µM
dH [2]: 3.3 kcal/mol
stoichiometry N [2]: 1
Substance: soybean ferredoxin (Fd) (natural protein)
